Laboratory results as given in EP4711453A1, “PHENYLALANINE LYASE MUTANT, AND CONJUGATE THEREOF OR PHARMACEUTICALLY ACCEPTABLE SALT THEREOF” (Peg-Bio Biopharm Co., Ltd. (Chongqing), priority 2023, dated 2024).

B1: PL24: polyethylene glycol conjugate of phenylalanine lyase mutant SEQ ID NO: 6, polyethylene glycol molecular weight 2K, average degree of modification 13.3 (conjugate)
chain: MKTLSQAQSKTSSQQFSFTGNSSANVIIGNQKLTINDVARVARNGTLVSLTNNTDILQGIQASCDYINNAVKSGEPIYGVTSGFGGMANVAISREQASELQTNLVWFLKTGAGNKLPLADVRAAMLLRANSHMRGASGIRLELIKRMEIFLNAGVTPYVYEFGSIGASGDLVPLSYITGSLIGLDPSFKVDFNGKEMDAPTALRQLNLSPLTLLPKEGLAMMNGTSVMTGIAANCVYDTKILTAIAMGVHALDIQALNGTNQSFHPFIHNSKPHPGQLWAADQMISLLANSQLVRDELDGKHDYRDHELIQDRYSLRCLPQYLGPIVDGISQIAKQIEIEINSVTDNPLIDVDNQASYHGGNFLGQYVGMGMDHLRYYIGLLAKHLDVQIALLASPEFSNGLPPSLLGNRERKVNMGLKGLQICGNSIMPLLTFYGNSIADRFPTHAEQFNQNINSQGYTSATLARKSVDIFQNYVAIALMFGVQAVDLRTYKKTGHYDARASLSPATERLYSAVRHVVGQKPTSDRPYIWNDNEQGLDEHIAKISADIAAGGVIVQAVQDILPSLH
modifications: PEG 2K conjugate, ~13.3 PEG per molecule

How the values were obtained:
anti-PAL-IgG = assay: Immunogenicity of conjugates with different PEG molecular weights in rats: anti-PAL-IgG (ELISA); format: in vivo; settings: 0.75 mg/kg s.c. once weekly
Protocol: (§1) Polyethylene glycol conjugates of phenylalanine lyase or its mutant with different structures and modifier molecular weights, namely PL20, PL24, and PL54, were prepared according to the method described in Example 2. The phenylalanine lyase in PL20 has the amino acid sequence as set forth in SEQ ID NO: 1, and the polyethylene glycol has a molecular weight of 20K. The phenylalanine lyase in PL24 has the amino acid sequence as set forth in SEQ ID NO: 6, and the polyethylene glycol has a molecular weight of 2K. The phenylalanine lyase in PL54 has the amino acid sequence as set forth in SEQ ID NO: 6, and the polyethylene glycol has a molecular weight of 5K.
(§2) To evaluate the immunogenicity of PL20, PL24, and PL54 in animals, normal rats were selected and divided into 3 groups, with 6 rats per group (3 males and 3 females). Subcutaneous administration was performed at a dose of 0.75 mg/kg with PL54 (average degree of modification 13.6, 1.27 U/mg), PL24 (average degree of modification 13.3, 0.96 U/mg), and PL20 (average degree of modification 7.6, 1.14 U/mg) for the three groups, respectively. Administration was repeated 7 times, once weekly. Blood samples were collected 7 days after each administration. Serum anti-PEG-IgG and anti-PAL4 protein antibodies were detected by ELISA (refer to Example 5 for details). In the table, "1-7" indicated 7 days after the first administration, and "7-7" indicated 7 days after the seventh administration. x represented the average OD value of antibody detection by ELISA, and the positive rate represented the ratio of the number of antibody-positive animals to the total number of animals in the group. Table 6: Antibody titers in rats after multiple administrations of polyethylene glycol conjugates with different molecular weights

anti-PEG-IgG = system: anti-PEG-IgG; parameters: species or system rats; settings: rat, in vivo; for anti-PEG-IgG, Positive rate: sc, 0.75 mg/kg
Protocol: as §1, §2

[1] = Specific enzyme activity of phenylalanine lyase (trans-cinnamic acid formation, absorbance at 290 nm); format: biochemical; settings: polyethylene glycol conjugates; method as for the proteins
Protocol: Phenylalanine lyase specifically catalyzes the conversion of phenylalanine into trans-cinnamic acid with the release of ammonia. […] Enzyme activity is defined as the amount of enzyme required to produce 1 µmol of trans-cinnamic acid per minute in buffer (100 mmol/L Tris-HCl, pH 8.5) at room temperature (25°C) as one unit of enzyme activity.
The specific enzyme activity of phenylalanine lyase and its mutants (i.e., PAL, PAL2, PAL3, and PAL4 proteins) prepared in Example 1 was evaluated by taking an appropriate amount of test sample and diluting it to 0.4 mg/ml using assay buffer (100 mmol/L Tris-HCl, pH 8.0). 2.9 ml of substrate solution (100 mmol/L Tris-HCl, 45 mmol/L Phe, pH 8.0) was placed in a cuvette, followed by addition of 0.1 ml of diluted test solution and immediate mixing. The changes in absorbance per minute were recorded at a wavelength of 290 nm, and the specific enzyme activity was calculated according to the formula. Enzyme activity (U/mg) = (AS−AO)VN × 10^6 /εLTV1 [formula]
Where AS and AO represent the absorbance of trans-cinnamic acid at the […] of the reaction, respectively; V is the total volume (L) of the reaction system; L is the optical path length of the cuvette (cm); ε is the molar extinction coefficient of trans-cinnamic acid (10238.1 L/(mol·cm)); T is the reaction time (min); N is the dilution factor of the test sample; V1 is the volume of test sample (ml).
The enzyme activity retention rate was calculated by comparing the specific enzyme activity of phenylalanine lyase mutants with the specific enzyme activity of the phenylalanine lyase. Table 2: Specific enzyme activity of phenylalanine lyase mutants
The specific enzyme activity of the polyethylene glycol conjugates of phenylalanine lyase and its mutants prepared in Step 1 of Example 2 was determined according to the method described in Step 1 of this example. The enzyme activity retention rate was calculated by comparing the specific enzyme activity of each conjugate with its specific enzyme activity prior to PEG modification (e.g., the enzyme activity retention rate of PL5-1 = specific enzyme activity of PL5-1 / specific enzyme activity of PAL protein). Table 3: Specific enzyme activity of PEGylated phenylalanine lyase mutants

[2] = 1-7 (7 days after the first administration)
[3] = 1-7, antibody-positive animals / animals in the group
[4] = 7-7 (7 days after the seventh administration)
[5] = 7-7, antibody-positive animals / animals in the group

Molecule | anti-PAL-IgG, x (average OD value of antibody detection by ELISA) (anti-PAL-IgG; [2]) | anti-PAL-IgG, Positive rate (anti-PAL-IgG; [3]) | anti-PAL-IgG, x (average OD value of antibody detection by ELISA) (anti-PAL-IgG; [4]) | anti-PAL-IgG, Positive rate (anti-PAL-IgG; [5]) | anti-PEG-IgG antibody titer, comparison between groups (anti-PEG-IgG) | anti-PEG-IgG, Positive rate (anti-PEG-IgG) | Specific enzyme activity [1]
PL20: polyethylene glycol conjugate of phenylalanine lyase SEQ ID NO: 1, polyethylene glycol molecular weight 20K, average degree of modification 7.6 [reference compound] | x=0.118 | Positive rate: 1/6 | x=0.102 | Positive rate: 1/6 | higher than that in the PL24 and PL54 groups | Positive rate: 6/6 | 1.14 U/mg
B1 | x=0.130 | Positive rate: 4/6 | x=0.891 | Positive rate: 6/6 |  | Positive rate: 6/6 | 0.96 U/mg
